Test results taken from publication PMC6025902 (Science Advances, 2018).

Molecular target: monomeric amyloid-β peptide 1–42 (Aβ42) (human, UniProt P05067 672-713)
Assay: ITC

Kd: 590 ± 230 nM
dH: -0.947 ± 0.0295 kcal/mol
stoichiometry N: 2.37 ± 0.07
B1: S100B protein (natural protein)
chain: MSELEKAMVALIDVFHQYSGREGDKHKLKKSELKELINNELSHFLEEIKEQEVVDKVMETLDNDGDGECDFQEFMAFVAMVTTACHEFFEHE
